In US20070089183A1, “Size and/or growth engineering by modulation of the interaction between calmodulin, and brassinosteroid biosynthetic enzymes and orthologs therof” (Washington State University, priority 2005, published 2007):

Tested on: Ca^2+/CaM
Assay: gel mobility shift assay of BR biosynthetic proteins
Type: binding, potato
Conditions: FIG. 5
Description: PCM1: potato calmodulin 1; PCM6: potato calmodulin 6. Sequences of respective CaMBD are also shown: N-DWF4 (SEQ ID NO:18); C-DWF4 (SEQ ID NO:19); CPD (SEQ ID NO:17); and DWF5 (SEQ ID NO:20).
DWF1Ca^2+ is an important second messenger and an integral part of the cellular signalling system in plants^5,29. Applicants were thus prompted to survey the CaM-binding properties of other proteins involved in brassinosteroid biosynthesis.

Ca^2+/CaM binding: Ca^2+/CaM-binding proteins
B1: CPD: Arabidopsis CPD (AT5G05690), cytochrome P450 90A1 (protein, listed as Arabidopsis thaliana)
chain: MAFTAFLLLLSSIAAGFLLLLRRTRYRRMGLPPGSLGLPLIGETFQLIGAYKTENPEPFIDERVARYGSVFMTHLFGEPTIFSADPETNRFVLQNEGKLFECSYPASICNLLGKHSLLLMKGSLHKRMHSLTMSFANSSIIKDHLMLDIDRLVRFNLDSWSSRVLLMEEAKKITFELTVKQLMSFDPGEWSESLRKEYLLVIEGFFSLPLPLFSTTYRKAIQARRKVAEALTVVVMKRREEEEEGAERKKDMLAALLAADDGFSDEEIVDFLVALLVAGYETTSTIMTLAVKFLTETPLALAQLKEEHEKIRAMKSDSYSLEWSDYKSMPFTQCVVNETLRVANIIGGVFRRAMTDVEIKGYKIPKGWKVFSSFRAVHLDPNHFKDARTFNPWRWQSNSVTTGPSNVFTPFGGGPRLCPGYELARVALSVFLHRLVTGFSWVPAEQDKLVFFPTTRTQKRYPIFVKRRDFAT
